Measured values: publication PMC4701952, “Evolution of the Plant Reproduction Master Regulators LFY and the MADS Transcription Factors: The Role of Protein Structure in the Evolutionary Development of the Flower” (Frontiers in Plant Science, 2015)
“And” between values parts separate entries of the source, which are not always exact repeats. Equal values may be shown once.

How the values were obtained:
[1] = target: the molecule itself; assay: SEC; Superdex 200 10/300 GL in Buffer A (30 mM Tris pH 8.0, 300 mM NaCl, 5% glycerol, 2 mM TCEP); oligomeric state against the wild type protein; self-association
[2] = target: the molecule itself; assay: native gel or EMSA; in vitro translated proteins (4 ul TnT mix, not purified) with 5-10 nM DY-682 labelled 121 bp SOC1 promoter DNA with two CArG boxes; complexes seen on DNA, assigned as putative dimer and tetramer
[3] = target: the molecule itself; assay: native gel or EMSA; in vitro translated proteins (not purified) with Cy5 labelled SOC1 promoter DNA in which CArG box 1 or CArG box 2 is mutated (one site left)

Row | Protein | stoichiometry N [1] | binding result [1] | further results
1 | SEP3^(75-178) construct (wild type) (domain or fragment, A. thaliana, UniProt O22456 75-178, looked up, cloned into pESPRIT002 (N-terminal 6x-His tag followed by a TEV site); also called SEP3 K-domain; oligomerisation domain of SEP3; source: E. coli BL21 (DE3) CodonPlusRIL, purified (Ni-Sepharose, TEV cleavage, Superdex 200 SEC); not shown: His6, N-terminal, cleaved) YGAPEPNVPSREALAVELSSQQEYLKLKERYDALQRTQRNLLGEDLGPLSTKELESLERQLDSSLKQIRALRTQFMLDQLNDLQSKERMLTETNKTLRLRLADG | 4 and 2 |  | 
2 | SEP3^L115R (natural protein, A. thaliana, UniProt O22456 1-251, looked up, also called dimerisation-interface mutant; source: in vitro translated (pSPUTK, Promega SP6 High Yield Expression System), used without further purification) MGRGRVELKRIENKINRQVTFAKRRNGLLKKAYELSVLCDAEVALIIFSNRGKLYEFCSSSSMLRTLERYQKCNYGAPEPNVPSREALAVELSSQQEYLKLKERYDALQRTQRNRLGEDLGPLSTKELESLERQLDSSLKQIRALRTQFMLDQLNDLQSKERMLTETNKTLRLRLADGYQMPLQLNPNQEEVDHYGRHHHQQQQHSQAFFQPLECEPILQIGYQGQQDGMGAGPSVNNYMLGWLPYDTNSI |  |  | stoichiometry N [2]: 2
3 | SEP3^ΔC (domain or fragment, A. thaliana, also called SEP3 truncation mutant; source: in vitro translated (pSPUTK, Promega SP6 High Yield Expression System), used without further purification) MGRGRVELKRIENKINRQVTFAKRRNGLLKKAYELSVLCDAEVALIIFSNRGKLYEFCSSSSMLRTLERYQKCNYGAPEPNVPSREALAVELSSQQEYLKLKERYDALQRTQRNLLGEDLGPLSTKELESLERQLDSSLKQIRALRTQFMLDQLNDLQSKLADG |  |  | stoichiometry N [2]: 2
4 | SEP3^L171A (natural protein, A. thaliana, UniProt O22456 1-251, looked up, also called tetramerisation interface mutant; source: in vitro translated (pSPUTK, Promega SP6 High Yield Expression System), used without further purification) MGRGRVELKRIENKINRQVTFAKRRNGLLKKAYELSVLCDAEVALIIFSNRGKLYEFCSSSSMLRTLERYQKCNYGAPEPNVPSREALAVELSSQQEYLKLKERYDALQRTQRNLLGEDLGPLSTKELESLERQLDSSLKQIRALRTQFMLDQLNDLQSKERMLTETNKTARLRLADGYQMPLQLNPNQEEVDHYGRHHHQQQQHSQAFFQPLECEPILQIGYQGQQDGMGAGPSVNNYMLGWLPYDTNSI |  |  | stoichiometry N [3]: 4
5 | SEP3^(75-178) Y98K (domain or fragment, A. thaliana, UniProt O22456 75-178, looked up, made with SEP3^(75-178) as the template; source: E. coli Rosetta2 (DE3) pLysS, purified (Ni-Sepharose, TEV cleavage, Superdex 200 SEC); not shown: His6, N-terminal, cleaved) YGAPEPNVPSREALAVELSSQQEKLKLKERYDALQRTQRNLLGEDLGPLSTKELESLERQLDSSLKQIRALRTQFMLDQLNDLQSKERMLTETNKTLRLRLADG | 2 |  | 
6 | SEP3^(75-178) Y105N (domain or fragment, A. thaliana, UniProt O22456 75-178, looked up, made with SEP3^(75-178) as the template; source: E. coli Rosetta2 (DE3) pLysS, purified (Ni-Sepharose, TEV cleavage, Superdex 200 SEC); not shown: His6, N-terminal, cleaved) YGAPEPNVPSREALAVELSSQQEYLKLKERNDALQRTQRNLLGEDLGPLSTKELESLERQLDSSLKQIRALRTQFMLDQLNDLQSKERMLTETNKTLRLRLADG | 4 |  | 
7 | SEP3^(75-178) L115R (domain or fragment, A. thaliana, UniProt O22456 75-178, looked up, made with SEP3^(75-178) as the template; source: E. coli Rosetta2 (DE3) pLysS, purified (Ni-Sepharose, TEV cleavage, Superdex 200 SEC); not shown: His6, N-terminal, cleaved) YGAPEPNVPSREALAVELSSQQEYLKLKERYDALQRTQRNRLGEDLGPLSTKELESLERQLDSSLKQIRALRTQFMLDQLNDLQSKERMLTETNKTLRLRLADG |  | binds | 
8 | SEP3^(75-178) L131V (domain or fragment, A. thaliana, UniProt O22456 75-178, looked up, made with SEP3^(75-178) as the template; source: E. coli Rosetta2 (DE3) pLysS, purified (Ni-Sepharose, TEV cleavage, Superdex 200 SEC); not shown: His6, N-terminal, cleaved) YGAPEPNVPSREALAVELSSQQEYLKLKERYDALQRTQRNLLGEDLGPLSTKELESVERQLDSSLKQIRALRTQFMLDQLNDLQSKERMLTETNKTLRLRLADG |  | binds | 
9 | SEP3^(75-178) L135M (domain or fragment, A. thaliana, UniProt O22456 75-178, looked up, made with SEP3^(75-178) as the template; source: E. coli Rosetta2 (DE3) pLysS, purified (Ni-Sepharose, TEV cleavage, Superdex 200 SEC); not shown: His6, N-terminal, cleaved) YGAPEPNVPSREALAVELSSQQEYLKLKERYDALQRTQRNLLGEDLGPLSTKELESLERQMDSSLKQIRALRTQFMLDQLNDLQSKERMLTETNKTLRLRLADG | 2 |  | 
10 | SEP3^(75-178) L135A (domain or fragment, A. thaliana, UniProt O22456 75-178, looked up, made with SEP3^(75-178) as the template; source: E. coli Rosetta2 (DE3) pLysS, purified (Ni-Sepharose, TEV cleavage, Superdex 200 SEC); not shown: His6, N-terminal, cleaved) YGAPEPNVPSREALAVELSSQQEYLKLKERYDALQRTQRNLLGEDLGPLSTKELESLERQADSSLKQIRALRTQFMLDQLNDLQSKERMLTETNKTLRLRLADG |  | binds | 
